For one assay, the target named is YFP-IP3R type 1. Briefly: acceptor photobleaching FRET, fixed COS-7 cells expressing YFP-IP3R and CFP-Bcl-2.
The target of assay [1] is Bcl-2 exogenously expressed in WEHI7.2 cells (UniProt P10415 1-239). Briefly: cell-based or functional assay.
Bcl-2 exogenously expressed in WEHI7.2 cells, sequence (P10415 whole entry): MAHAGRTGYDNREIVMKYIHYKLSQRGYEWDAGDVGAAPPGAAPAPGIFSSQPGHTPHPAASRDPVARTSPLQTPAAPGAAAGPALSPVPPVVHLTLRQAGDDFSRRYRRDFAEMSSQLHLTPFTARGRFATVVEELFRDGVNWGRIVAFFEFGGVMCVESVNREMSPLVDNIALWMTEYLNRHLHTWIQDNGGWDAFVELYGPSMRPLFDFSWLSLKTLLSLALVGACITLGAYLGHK

The molecule CFP-Bcl-2 (from UniProt P10415 1-239) had an increase of CFP signal following YFP bleaching (FRET) with YFP-IP3R type 1 of 28%. For NVYTEIKCNSLLPLDDIVRV [peptide 2, aa 1389-1408 of IP3R], the “anti-CD3-induced apoptosis in Bcl-2(+) WEHI7.2 cells, fold enhancement” value in assay [1] worked out at 2 fold.

For the origin of these results see patent US20090048168A1 (CASE WESTERN RESERVE UNIVERSITY, published 2009).
